Legend:
[1] = tested on: 35S-labeled FLAG-MAVS (in vitro translated)
[2] = tested on: 35S-labeled FLAG-MAVS-C508R (in vitro translated)

Substance: Flag-NS3/4A (S139A), protease-dead mutant
- cleavage of 35S-labeled MAVS in vitro (SDS-PAGE, PhosphorImaging) [1]: the wild type MAVS was cleaved by the active NS3/4A protease, but not the inactive NS3/4A mutant

Substance: Flag-NS3/4A (wild type hepatitis C virus NS3/4A serine protease)
- cleavage of 35S-labeled MAVS in vitro (SDS-PAGE, PhosphorImaging) [1]: the wild type MAVS was cleaved by the active NS3/4A protease
- cleavage of 35S-labeled MAVS in vitro (SDS-PAGE, PhosphorImaging) [2]: a point mutation at Cys-508 completely blocked the cleavage of MAVS by NS3/4A in vitro

Reference: patent US20080003614
